Reference: publication PMC3987144 (The Journal of Cell Biology, 2014)

B1: His-SNAP25 (natural protein)
chain: MPADPSEEVAPQVPKTELEELQINAQGVADESLESTRRMLALCEESKEAGIRTLVALDDQGEQLDRIEEGMDQINADMREAEKNLSGMEKCCGICVLPCNKSQSFKEDDGTWKGNDDGKVVNNQPQRVMDDRNGMMAQAGYIGRITNDAREDEMEENMGQVNTMIGNLRNMALDMGSELENQNRQIDRINRKGESNEARIAVANQRAHQLLK
B2: GST-Syx1A-H3 (Syx1A SNARE domain, 200-267 aa) (domain or fragment)
chain: ARHQDIMKLETSIKELHDMFMDMAMLVESQGEMIDRIEYHVEHAMDYVQTATQDTKKALKYQSKARRK
B3: His-n-Syb (neuronal Synaptobrevin, amino acids 1-104) (domain or fragment)
chain: MADAAPAGDAPPNAGAPAGEGGDGEIVGGPHNPQQIAAQKRLQQTQAQVDEVVDIMRTNVEKVLERDSKLSELDDRADALQQGASQFEQQAGKLKRKFWLQNLK

Tests used:
[1] = biological target: Syx1A (Syntaxin 1A), endogenous (Drosophila melanogaster (endogenous in adult fly heads)) (UniProt Q24547); assay: co-IP
[2] = biological target: V100 (neuronal v-ATPase V0 subunit a1), endogenous (Drosophila melanogaster (endogenous in adult fly heads)) (UniProt Q8IML5); assay: co-IP
[3] = biological target: GST-Syx1A (Syntaxin 1A, 1-267 aa) (Drosophila melanogaster, UniProt Q24547 1-267); assay: pull-down
[4] = biological target: GST-open Syx1A (Syx1A L168A/E169A mutant, 1-267 aa) (Drosophila melanogaster, UniProt Q24547 1-267, L168A | E169A); assay: pull-down
His-SNAP25 = biological target: B1; assay: pull-down

Chain of Syx1A (Syntaxin 1A), endogenous (Drosophila melanogaster (endogenous in adult fly heads)) (Q24547 whole entry): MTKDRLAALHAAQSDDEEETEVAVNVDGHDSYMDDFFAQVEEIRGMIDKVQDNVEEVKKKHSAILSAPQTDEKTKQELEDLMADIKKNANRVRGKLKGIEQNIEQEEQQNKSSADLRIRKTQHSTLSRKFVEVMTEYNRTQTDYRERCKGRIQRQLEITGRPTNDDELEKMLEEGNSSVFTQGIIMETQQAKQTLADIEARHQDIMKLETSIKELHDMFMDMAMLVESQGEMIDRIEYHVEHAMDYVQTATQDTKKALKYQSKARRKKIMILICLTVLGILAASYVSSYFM

Question: For “V100 (neuronal v-ATPase V0 subunit a1), endogenous (from UniProt Q8IML5 1-833) (natural protein)”, which percent of V100 in a complex with Syx1A [1] is on record?
Answer: < 50%

Question: For B1, which percent of total input in complex with V100 (% of total input) [2] is on record?
Answer: 1

Question: Does B1 bind [3]?
Answer: binds

Question: Does B1 bind [4]?
Answer: binds

Question: Does B2 bind (His-SNAP25)?
Answer: binds

Question: Does B3 bind [3]?
Answer: binds
